Results published in US20200157194A1 (Regeneron, published 2020).
Where a chain is given by its changes, count along the chain named. Where two headings read alike, the source gives them in different places.

Columns and labels:
[1] = molecular target: T1, human GREM1 (hGREM1-His; SEQ ID NO: 595) (human, UniProt O60565 25-184); experiment: SPR, Biacore T200, 25 C, mAb captured, hGREM1-His injected;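 note: Heparin-supplemented HBS-EP+ used as running buffer, association and dissociation phases followed, Kd computed as koff divided by kon and half-life derived from koff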
T1 construct: also called biotin-hGREM1-His; recombinant human GREM1 protein
T1 sequence: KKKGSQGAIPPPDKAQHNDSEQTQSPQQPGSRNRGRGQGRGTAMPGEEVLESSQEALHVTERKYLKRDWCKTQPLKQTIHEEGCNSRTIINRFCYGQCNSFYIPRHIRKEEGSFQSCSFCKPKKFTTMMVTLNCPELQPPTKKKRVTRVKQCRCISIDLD

[2] = molecular target: T2, recombinant human GREM1 (hGREM1-His; C-terminal 10His tagged, R&D, #5190-GR) (human, UniProt O60565 25-184, limits assumed); experiment: cell-based or functional assay
T2 sequence: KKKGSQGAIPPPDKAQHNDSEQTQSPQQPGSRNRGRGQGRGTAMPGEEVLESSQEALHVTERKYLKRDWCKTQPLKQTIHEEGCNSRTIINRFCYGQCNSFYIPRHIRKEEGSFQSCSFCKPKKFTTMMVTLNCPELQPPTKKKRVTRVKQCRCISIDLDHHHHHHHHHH

[3] = molecular target: T2, recombinant human GREM1 (hGREM1-His; …); experiment: cell-based or functional assay; remark: listed apart in the source
[4] = molecular target: T2, recombinant human GREM1 (hGREM1-His; …); experiment: BLI Octet, mAb captured, 100 nM GREM1 + 5 uM heparin;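 note: octet Red96 biolayer interferometry at 25 °C, antibodies captured on anti-human IgG Fc biosensors, pH 7.4 HEPES buffer with 0.1 mg/mL BSA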
[5] = molecular target: T1, human GREM1 (hGREM1-His; SEQ ID NO: 595); experiment: SPR, Biacore T200, 37 C, mAb captured, hGREM1-His injected;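 note: HBS-EP running buffer containing heparin, association and dissociation phases tracked, KD computed as koff over kon and half-life derived from koff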
[6] = molecular target: T2, recombinant human GREM1 (hGREM1-His; …); experiment: cell-based or functional assay; remark: listed apart in the source
[7] = molecular target: T2, recombinant human GREM1 (hGREM1-His; …); experiment: BLI Octet, mAb captured, 100 nM GREM1;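 note: octet Red96 biolayer interferometry at 25 °C in pH 7.4 HEPES saline buffer, antibodies held on anti-human IgG Fc capture biosensors, then exposed to GREM1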
[8] = molecular target: T2, recombinant human GREM1 (hGREM1-His; …); experiment: BLI Octet, mAb captured, 100 nM GREM1 without vs with 5 uM heparin;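 note: octet Red96 biolayer interferometry at 25 °C, antibodies captured on anti-human IgG Fc biosensors, association of GREM1 measured with versus without heparin in HEPES-buffered saline, pH 7.4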
[9] = molecular target: T1, human GREM1 (hGREM1-His; SEQ ID NO: 595); experiment: competition ELISA, biotin-hGREM1-His (100 pM) binding to coated hBMP4

B1: H2bM2890N (antibody, mouse IgG2, V domains shown)
VH: QVQLVESGGGVVQPGRSLRLTCAASGFTFSSFGMHWVRQAPGKGLEWVAIIWYDGSNKYYADSVKGRFTISRDNSKNTLYLQMNSLRAEDTAVYYCAREDNWTRDYFDYWGQGTLVTVSS
VL: EIVLTQSPATLSLSPGERATLSCRASQSVSNFLAWYQQKPGQAPRLLIYDASNRATGIPARFSGSGSGTDFTLTISSLEPEDFAVYYCQQRSNWPPLPFGGGTKVEIK
notes: H2M prefix = mouse IgG2 Fc (here H2bM); also called H2M2890N
Kd [1]: 130 nM
koff [1]: 0.001 s⁻¹
kon [1]: 10000 M⁻¹ s⁻¹
t1/2 [1]: 11.6 min
IC50 [M], inhibition of hGREM1-His, W-20-17/BRE-luc luciferase (100 pM hBMP4, 10 nM hGREM1-His) [2]: 2.1e-09 M

B2: H4H6260P (antibody, human IgG4, V domains shown)
VH: QVQLVESGGGVVQPGRSLRLSCAASGFTFSTYGMHWVRQAPGKGLEWVAIIWYDGSNYYYADSVKGRFTISRDNSKNTLYLQMNSLRAEDTAVYYCAREDRNDVFDIWGQGTMVTVSS
VL: B1 VL with N31S, A51S, R91L, L97I, P98T, G101Q, K104R, V105L
notes: H4H prefix = human IgG4 Fc
hGREM1-His Inhibition IC50, M; W-20-17 cell differentiation assay (alkaline phosphatase) [3]: 3.3 nM
Binding Signal with 30 sec Association [4]: 0.07 nm
Binding Signal with 300 sec Association [4]: 0.37 nm
Kd [5]: 1.71 nM
koff [5]: 0.000285 s⁻¹
kon [5]: 166000 M⁻¹ s⁻¹
t1/2 [5]: 41 min
IC50 [M], inhibition of hGREM1-His, W-20-17/BRE-luc luciferase (100 pM hBMP4, 10 nM hGREM1-His) [6]: 4.6e-10 M
Kd [1]: 0.669 nM
koff [1]: 6.51e-05 s⁻¹
kon [1]: 97400 M⁻¹ s⁻¹
t1/2 [1]: 177 min
Binding Signal with 30 sec Association [7]: 0.24 nm
Binding Signal with 300 sec Association [7]: 0.42 nm
Reduction in Signal from Heparin at 30 sec [8]: 0.17 nm
Reduction in Signal from Heparin at 300 sec [8]: 0.05 nm
% blocked at maximum Ab tested (20 nM) [9]: 87%
IC50 [9]: < 0.025 nM

B3: H2bM2785N (antibody, mouse IgG2, V domains shown)
VH: EVQLLESGGGLVQPGGSLRLSCAASGFTFSSYVMNWVRQAPGKGLEWVSAISGSGGSTSYADSVKGRSTISRDNSKNTLYLQMNSLRAEDTAVYYCAKGDIAAIVFDAFDIWGQGTMVTVSS
VL: DIQMTQSPSSLSASVGDRVTITCQASQDISNCLNWYQHKPGKAPKLLIYDASYLETGGPSRFSGSGSGTDFTFTIRSLQPEDFATYYCQQYDNLPYTFGQGTKLEIK
IC50 [M], inhibition of hGREM1-His, W-20-17/BRE-luc luciferase (200 pM hBMP4, 20 nM hGREM1-His) [2]: 2.7e-08 M

B4: H2bM2891N (antibody, mouse IgG2, V domains shown)
VH: EVQMVESGGGLVQPGGSLRLSCAASRFTLSNYWMGWVRQAPGKGLEWVANIKQDGSEKYYVDSVRGRFTISRDNAKNSLYLQMNSLRAEDTAVYYCARDYDFWRSFDYWGQGTLVTVPS
VL: DIQMTQSPSSVSASVGDRVTITCRASQGVSSWLAWYQQTPGKAPKLLIYVVSSLQSGVPSRFSGSGSGTDFTLTINSLQPEDFATYYCQQGNSFPYTFGQGTKLEIK
notes: H2M prefix = mouse IgG2 Fc (here H2bM); also called H2M2891N
Kd [1]: 60 nM
koff [1]: 0.0012 s⁻¹
kon [1]: 20000 M⁻¹ s⁻¹
t1/2 [1]: 9.6 min
IC50 [M], inhibition of hGREM1-His, W-20-17/BRE-luc luciferase (100 pM hBMP4, 10 nM hGREM1-His) [2]: 1.1e-09 M

B5: H2bM2906N (antibody, mouse IgG2, V domains shown)
VH: B4 VH with R26G, P118S
VL: B4 VL with T39K, A43T, S65R
notes: H2M prefix = mouse IgG2 Fc (here H2bM); also called H2M2906N
Kd [1]: 15 nM
koff [1]: 0.0013 s⁻¹
kon [1]: 80000 M⁻¹ s⁻¹
t1/2 [1]: 8.9 min
IC50 [M], inhibition of hGREM1-His, W-20-17/BRE-luc luciferase (100 pM hBMP4, 10 nM hGREM1-His) [2]: 1.6e-09 M

B6: H2aM2898N (antibody, mouse IgG2, V domains shown)
VH: EVQLVESGGGLVQPGGSLRLSCAASGFTFSIYDMHWVRQATGKGLEWVSGIGNAGDTYYAGSVKGRFTISRENAKNSLYLQMNSLRAGDTAVYYCAREGPNYYYYGMDVWGQGTTVTVSS
VL: AIQMTQSPSSLSASVGDRVTITCRASQGIRDDLGWYQQKPGKAPKLLIYAASSLQSGVPSRFSGSGSGTDFTLTISSLQPEDFATYYCLQDYNYPWTFGQGTKVEIK
notes: H2M prefix = mouse IgG2 Fc (here H2aM); also called H2M2898N
binding result [1]: no binding (tested: 11 to 100 nM hGREM1-His injected)
IC50 [M], inhibition of hGREM1-His, W-20-17/BRE-luc luciferase (100 pM hBMP4, 10 nM hGREM1-His) [2]: 1.4e-09 M

B7: H4H6248P (antibody, human IgG4, V domains shown)
VH: QVQLVESGGGVVQPGRSLRLSCAASGFTFSNYGMHWVRQVPGKGLEWVAVIWYDGSNKYYADSVKGRFTISRDNSKNTLYLQMNSVRAEDTAVYYCARDDYGDSPGFDYWGQGTLVTVSS
VL: EIVMTQSPATLSVSPGERATLSCRASQSVSSSLAWYQQKPGQAPRLLIYDASTRATGIPARFSGSGSGTEFTLTISGLQSEDFAVYYCQQYNNWPPWTFGQGTKVEIK
notes: H4H prefix = human IgG4 Fc
hGREM1-His Inhibition IC50, M; W-20-17 cell differentiation assay (alkaline phosphatase) [3]: 5.6 nM
Binding Signal with 30 sec Association [4]: 0.04 nm
Binding Signal with 300 sec Association [4]: 0.37 nm
Kd [5]: 5.69 nM
koff [5]: 0.000487 s⁻¹
kon [5]: 85500 M⁻¹ s⁻¹
t1/2 [5]: 24 min
IC50 [M], inhibition of hGREM1-His, W-20-17/BRE-luc luciferase (100 pM hBMP4, 10 nM hGREM1-His) [6]: 5.3e-10 M
Kd [1]: 1.54 nM
koff [1]: 7.73e-05 s⁻¹
kon [1]: 50300 M⁻¹ s⁻¹
t1/2 [1]: 149 min
Binding Signal with 30 sec Association [7]: 0.21 nm
Binding Signal with 300 sec Association [7]: 0.42 nm
Reduction in Signal from Heparin at 30 sec [8]: 0.17 nm
Reduction in Signal from Heparin at 300 sec [8]: 0.05 nm
% blocked at maximum Ab tested (20 nM) [9]: 62%
IC50 [9]: 0.21 nM

B8: H4H6270P (antibody, human IgG4, V domains shown)
VH: QVQLVESGGDVVQPGRSLRLSCAASGFTFSSYGMHWVRQAPGKGLEWVAIIWNDGSNKYYTDSVKGRFTISRDNSKNTLYLQMNGLRAEDTAIYYCARDQDQFDYWGQGTLVTVSS
VL: B7 VL with V29I, S31T, S32N, Q37R, E70D, G77S, N92S, W97Y, V105L
notes: H4H prefix = human IgG4 Fc
hGREM1-His Inhibition IC50, M; W-20-17 cell differentiation assay (alkaline phosphatase) [3]: 3.1 nM
Binding Signal with 30 sec Association [4]: 0.05 nm
Binding Signal with 300 sec Association [4]: 0.33 nm
Kd [5]: 6.79 nM
koff [5]: 0.00065 s⁻¹
kon [5]: 95800 M⁻¹ s⁻¹
t1/2 [5]: 18 min
IC50 [M], inhibition of hGREM1-His, W-20-17/BRE-luc luciferase (100 pM hBMP4, 10 nM hGREM1-His) [6]: 5.4e-10 M
Kd [1]: 4.08 nM
koff [1]: 0.000175 s⁻¹
kon [1]: 42900 M⁻¹ s⁻¹
t1/2 [1]: 66 min
Binding Signal with 30 sec Association [7]: 0.2 nm
Binding Signal with 300 sec Association [7]: 0.39 nm
Reduction in Signal from Heparin at 30 sec [8]: 0.15 nm
Reduction in Signal from Heparin at 300 sec [8]: 0.06 nm
% blocked at maximum Ab tested (20 nM) [9]: 62%
IC50 [9]: 1.9 nM

B9: H4H6251P (antibody, human IgG4, V domains shown)
VH: B7 VH with R16K, N31R, V40A, V86L, E89D, V93M, Y109F
VL: B7 VL with S32N, S65T, G77S, V85L, N92D, N93D
notes: H4H prefix = human IgG4 Fc
hGREM1-His Inhibition IC50, M; W-20-17 cell differentiation assay (alkaline phosphatase) [3]: 11 nM
Binding Signal with 30 sec Association [4]: 0.03 nm
Binding Signal with 300 sec Association [4]: 0.36 nm
Kd [5]: 275 nM
koff [5]: 0.00694 s⁻¹
kon [5]: 25300 M⁻¹ s⁻¹
t1/2 [5]: 2 min
IC50 [M], inhibition of hGREM1-His, W-20-17/BRE-luc luciferase (100 pM hBMP4, 10 nM hGREM1-His) [6]: 6.3e-10 M
Kd [1]: 23.1 nM
koff [1]: 0.000652 s⁻¹
kon [1]: 28200 M⁻¹ s⁻¹
t1/2 [1]: 18 min
Binding Signal with 30 sec Association [7]: 0.27 nm
Binding Signal with 300 sec Association [7]: 0.45 nm
Reduction in Signal from Heparin at 30 sec [8]: 0.24 nm
Reduction in Signal from Heparin at 300 sec [8]: 0.09 nm
% blocked at maximum Ab tested (20 nM) [9]: 62%
IC50 [9]: 0.11 nM

B10: H4H6256P (antibody, human IgG4, V domains shown)
VH: B7 VH with N31A, V40G, S85R, V86L, Y109H
VL: B7 VL with S32E, I48L, D50G, G77S, N92S
notes: H4H prefix = human IgG4 Fc
hGREM1-His Inhibition IC50, M; W-20-17 cell differentiation assay (alkaline phosphatase) [3]: 5.7 nM
Binding Signal with 30 sec Association [4]: 0.07 nm
Binding Signal with 300 sec Association [4]: 0.38 nm
Kd [5]: 4.08 nM
koff [5]: 0.000466 s⁻¹
kon [5]: 114000 M⁻¹ s⁻¹
t1/2 [5]: 25 min
IC50 [M], inhibition of hGREM1-His, W-20-17/BRE-luc luciferase (100 pM hBMP4, 10 nM hGREM1-His) [6]: 5.4e-10 M
Kd [1]: 1.19 nM
koff [1]: 0.000107 s⁻¹
kon [1]: 90000 M⁻¹ s⁻¹
t1/2 [1]: 108 min
Binding Signal with 30 sec Association [7]: 0.2 nm
Binding Signal with 300 sec Association [7]: 0.4 nm
Reduction in Signal from Heparin at 30 sec [8]: 0.13 nm
Reduction in Signal from Heparin at 300 sec [8]: 0.02 nm
% blocked at maximum Ab tested (20 nM) [9]: 75%
IC50 [9]: 0.087 nM
